Values of other authors in patent US20030092000.

Key:
Settings in all cases: method not stated
[1] = test system: FAD 4A (designed three-finger ZFP) (synthetic)
[2] = test system: FAD 4B (designed three-finger ZFP) (synthetic)
[3] = test system: FAD 1A (designed three-finger ZFP) (synthetic)
[4] = test system: FAD 1B (designed three-finger ZFP) (synthetic)
[5] = test system: FAD 3A (designed three-finger ZFP) (synthetic)
[6] = test system: FAD 3B (designed three-finger ZFP) (synthetic)
[7] = test system: FAD 2A (designed three-finger ZFP) (synthetic)
[8] = test system: FAD 5A (designed three-finger ZFP) (synthetic)

GAGGTGGAAG (double strand) [FAD 4 target]
Kd [1]: 10 nM
Kd [2]: 2 nM

GAGGTAGAGG (double strand) [FAD 1 target]
Kd [3]: 10 nM
Kd [4]: 10 nM

GTTGAGGAAG (double strand) [FAD 3 target]
Kd [5]: 100 nM
Kd [6]: 100 nM

GTCGTGTGGA (double strand) [FAD 2 target]
Kd [7]: 100 nM

TAGGTGGTGA (double strand) [FAD 5 target]
Kd [8]: 10 nM
